Target: HLA-A*02:01 (Homo sapiens, UniProt P04439, D140Y/D185E/D98H/E176V/E277Q/G131W/G231S/I119V/I121R/I166T/I218V/L300P/L318F/N151K/N90K/P208A/P217A/Q86G/Q94H/R138H/R169H/T345S)
Assay: MHC binding assay (UV-ligand exchange, beta2m ELISA)
Conditions: binding to HLA-A*02:01 ranged by peptide exchange yield (UV-ligand exchange, β2m ELISA)
Summary of the method: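 Stabilised complexes were quantified via their β2m light chain: 100-fold-diluted monomers bound to streptavidin plates, then HRP anti-β2m at 2 ug/ml for 1 h at 37° C., TMB read at 450 nm. The value is the yield of UV-induced exchange of a photocleavable peptide for the candidate.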

| Substance | Peptide exchange |
| --- | --- |
| 391 (YVYPQRLNFV; listed as Homo sapiens) [compound 391] | “+++” (≥50 = +++) |
| 225 (SLLKVLPAL; listed as Homo sapiens) [compound 225] | “+++” (≥50 = +++) |
| 288 (NLINEINGV; listed as Homo sapiens) [compound 288] | “+++” (≥50 = +++) |
| 235 (YLNDLHEVLL; listed as Homo sapiens) [compound 235] | “++++” (≥75% = ++++) |
| 364 (LLQNEQFEL; listed as Homo sapiens) [compound 364] | “+++” (≥50 = +++) |
| 57 (TLAELQPPVQL; listed as Homo sapiens) [compound 57] | “+++” (≥50 = +++) |
| 310 (FLVDTPLARA; listed as Homo sapiens) [compound 310] | “++++” (≥75% = ++++) |
| 341 (SQIALNEKLVNL; listed as Homo sapiens) [compound 341] | “+++” (≥50 = +++) |
| 6 (VLVSDGVHSV; listed as Homo sapiens) [compound 6] | “+++” (≥50 = +++) |
| 344 (YLQDQHLLLTV; listed as Homo sapiens) [compound 344] | “+++” (≥50 = +++) |
| 165 (SLLDEIRAV; listed as Homo sapiens) [compound 165] | “+++” (≥50 = +++) |
| 274 (SLLFSLFEA; listed as Homo sapiens) [compound 274] | “++” (≥20% = ++) |
| 218 (SALEELVNV; listed as Homo sapiens) [compound 218] | “++” (≥20% = ++) |
| 337 (HLLSELEAAPYL; listed as Homo sapiens) [compound 337] | “++++” (≥75% = ++++) |
| 93 (LLQAIKLYL; listed as Homo sapiens) [compound 93] | “++” (≥20% = ++) |
| 331 (KVDTVWVNV; listed as Homo sapiens) [compound 331] | “+++” (≥50 = +++) |
| 117 (ILPDGEDFLAV; listed as Homo sapiens) [compound 117] | “+++” (≥50 = +++) |
| 244 (SLFGGTEITI; listed as Homo sapiens) [compound 244] | “+++” (≥50 = +++) |
| 53 (KMIETDILQKV; listed as Homo sapiens) [compound 53] | “++++” (≥75% = ++++) |
| 162 (YQQAQVPSV; listed as Homo sapiens) [compound 162] | “+++” (≥50 = +++) |
| 328 (ALNDQVFEI; listed as Homo sapiens) [compound 328] | “+++” (≥50 = +++) |
| 81 (FLFSQLQYL; listed as Homo sapiens) [compound 81] | “++” (≥20% = ++) |
| 277 (LLPPLESLATV; listed as Homo sapiens) [compound 277] | “++” (≥20% = ++) |
| 72 (SLLELDGINL; listed as Homo sapiens) [compound 72] | “+++” (≥50 = +++) |
| 313 (VLFDDELLMV; listed as Homo sapiens) [compound 313] | “+++” (≥50 = +++) |
| 27 (ILADIVISA; listed as Homo sapiens) [compound 27] | “+++” (≥50 = +++) |

| Substance | Peptide exchange |
| --- | --- |
| 66 (FLDENIGGVAV; listed as Homo sapiens) [compound 66] | “+++” (≥50 = +++) |
| 94 (YLIDIKTIAI; listed as Homo sapiens) [compound 94] | “++” (≥20% = ++) |
| 215 (QLINHLHAV; listed as Homo sapiens) [compound 215] | “+++” (≥50 = +++) |
| 167 (KVLEVTEEFGV; listed as Homo sapiens) [compound 167] | “+++” (≥50 = +++) |
| 238 (YLISFQTHI; listed as Homo sapiens) [compound 238] | “+++” (≥50 = +++) |
| 157 (SLNDEVPEV; listed as Homo sapiens) [compound 157] | “++” (≥20% = ++) |
| 128 (YLFDDPLSAV; listed as Homo sapiens) [compound 128] | “++” (≥20% = ++) |
| 312 (IISDLTIAL; listed as Homo sapiens) [compound 312] | “+++” (≥50 = +++) |
| 388 (SLTIDGIRYV; listed as Homo sapiens) [compound 388] | “+++” (≥50 = +++) |
| 123 (NLWDLTDASVV; listed as Homo sapiens) [compound 123] | “+++” (≥50 = +++) |
| 350 (ALLDVTHSELTV; listed as Homo sapiens) [compound 350] | “+++” (≥50 = +++) |
| 76 (ILIDSIYKV; listed as Homo sapiens) [compound 76] | “+++” (≥50 = +++) |
| 14 (AAYGGLNEKSFV; listed as Homo sapiens) [compound 14] | “+++” (≥50 = +++) |
| 221 (ALYEEGLLL; listed as Homo sapiens) [compound 221] | “++” (≥20% = ++) |
| 380 (TLIEDEIATI; listed as Homo sapiens) [compound 380] | “++” (≥20% = ++) |
| 264 (SLQEQLHSV; listed as Homo sapiens) [compound 264] | “+++” (≥50 = +++) |
| 55 (SLLDLETLSL; listed as Homo sapiens) [compound 55] | “++++” (≥75% = ++++) |
| 54 (SLLEQGKEPWMV; listed as Homo sapiens) [compound 54] | “+++” (≥50 = +++) |
| 40 (TLLVKVFSV; listed as Homo sapiens) [compound 40] | “+++” (≥50 = +++) |
| 376 (AMFESSQNVLL; listed as Homo sapiens) [compound 376] | “++” (≥20% = ++) |
| 334 (TLTKVLVAL; listed as Homo sapiens) [compound 334] | “+++” (≥50 = +++) |
| 208 (KISPVTFSV; listed as Homo sapiens) [compound 208] | “+++” (≥50 = +++) |
| 386 (ILFRYPLTI; listed as Homo sapiens) [compound 386] | “+++” (≥50 = +++) |
| 114 (SLVGEPILQNV; listed as Homo sapiens) [compound 114] | “++” (≥20% = ++) |
| 80 (FLYDNLVESL; listed as Homo sapiens) [compound 80] | “++” (≥20% = ++) |

Next, values leading:

| Peptide exchange | Substance |
| --- | --- |
| “+++” (≥50 = +++) | 557 (KLYDDMIRL; listed as Homo sapiens) [compound 557] |
| “+++” (≥50 = +++) | 623 (YLVEDIQHI; listed as Homo sapiens) [compound 623] |
| “+++” (≥50 = +++) | 593 (GLPRFGIEMV; listed as Homo sapiens) [compound 593] |
| “++++” (≥75% = ++++) | 438 (KLLPLAGLYL; listed as Homo sapiens) [compound 438] |
| “+++” (≥50 = +++) | 577 (VMFEDGVLMRL; listed as Homo sapiens) [compound 577] |
| “+++” (≥50 = +++) | 525 (VLLEAGEGLVTI; listed as Homo sapiens) [compound 525] |
| “++” (≥20% = ++) | 565 (ALQETPTSV; listed as Homo sapiens) [compound 565] |
| “++++” (≥75% = ++++) | 576 (ILLNNSGQIKL; listed as Homo sapiens) [compound 576] |
| “+++” (≥50 = +++) | 479 (SLFGNSGILENV; listed as Homo sapiens) [compound 479] |
| “+++” (≥50 = +++) | 452 (ILLEHGADPNL; listed as Homo sapiens) [compound 452] |
| “++++” (≥75% = ++++) | 568 (TLYDIAHTPGV; listed as Homo sapiens) [compound 568] |
| “++” (≥20% = ++) | 408 (VLDDSIYLV; listed as Homo sapiens) [compound 408] |
| “++++” (≥75% = ++++) | 621 (VLMDRLPSLL; listed as Homo sapiens) [compound 621] |
| “+++” (≥50 = +++) | 564 (TVTNAVVTV; listed as Homo sapiens) [compound 564] |
| “+++” (≥50 = +++) | 430 (HLYSSIEHLTT; listed as Homo sapiens) [compound 430] |
| “+++” (≥50 = +++) | 612 (YLYNEGLSV; listed as Homo sapiens) [compound 612] |
| “+++” (≥50 = +++) | 531 (YTLPIASSIRL; listed as Homo sapiens) [compound 531] |
| “++++” (≥75% = ++++) | 620 (KLLNKIYEA; listed as Homo sapiens) [compound 620] |
| “+++” (≥50 = +++) | 586 (KLKPGDLVGV; listed as Homo sapiens) [compound 586] |
| “+++” (≥50 = +++) | 550 (FLYDEIEAEVNL; listed as Homo sapiens) [compound 550] |
| “+++” (≥50 = +++) | 554 (LLMPSSEDLLL; listed as Homo sapiens) [compound 554] |
| “+++” (≥50 = +++) | 407 (YLMDLINFL; listed as Homo sapiens) [compound 407] |
| “++” (≥20% = ++) | 451 (LLLLDTVTMQV; listed as Homo sapiens) [compound 451] |
| “+++” (≥50 = +++) | 529 (LLADELITV; listed as Homo sapiens) [compound 529] |
| “+++” (≥50 = +++) | 436 (HLAEVSAEV; listed as Homo sapiens) [compound 436] |
| “+++” (≥50 = +++) | 467 (FLAKDFNFL; listed as Homo sapiens) [compound 467] |
| “+++” (≥50 = +++) | 401 (ILLDDTGLAYI; listed as Homo sapiens) [compound 401] |

Reference: patent US10738094B2, “Peptides and combination of peptides for use in immunotherapy against ovarian cancer and other cancers” (immatics biotechnologies GmbH, priority 2015, dated 2020)
